Measured values published in publication PMC5933747 (PLoS ONE, 2018).

Assays:
[1] = target: T1, human NaV1.7 (Homo sapiens, UniProt Q15858)
[2] = target: T2, human NaV1.4 (Homo sapiens, UniProt P35499); test: PatchXpress (PX) automated electrophysiology, human NaV1.4; format: cell-based; settings: for IC50: PX platform, at least ten cells, two to three data points per concentration
Protocol: Human NaV (hNaV) stably transfected cell lines in HEK293 or CHO backgrounds and cell culture methods were as previously described. hNaV1.1-hNaV1.7 cells were obtained from Eurofins Pharma Discovery Services (St. Charles, MO), and hNaV1.8 cells were generated in house. Whole cell patch clamp, PatchXpress, and IWQ electrophysiology voltage protocols as well as DRG neuron isolation were carried out as previously described. NaV1.7-NaV1.5 chimeras were generated and evaluated in BacMam transduced U2-OS cells on the IWQ platform as previously described.

[3] = target: T3, human NaV1.5 (Homo sapiens, UniProt Q14524); test: PatchXpress (PX) automated electrophysiology, human NaV1.5; format: cell-based; settings: PX platform; at least ten cells, two to three data points per concentration
[4] = target: T3, human NaV1.5; test: IonWorks Quattro (IWQ) electrophysiology, human NaV1.5; format: cell-based; settings: read-out: Glu mutant IWQ IC50 NaV1.5
[5] = target: wild-type NaV1.5 (Homo sapiens, UniProt Q14524)
[6] = target: T1, human NaV1.7; remark: listed apart in the source
[7] = target: T1, human NaV1.7; remark: listed apart in the source
[8] = target: T1, human NaV1.7; remark: listed apart in the source
[9] = target: T1, human NaV1.7; test: 125I-ProTx-II radioligand binding to live HEK293 cells stably expressing human NaV1.7; settings: 0.5 nM 125I-ProTx-II, 3 h, increasing concentrations of cold peptide
[10] = target: T2, human NaV1.4; test: IonWorks Quattro (IWQ) electrophysiology, human NaV1.4; format: cell-based; settings: read-out: Glu mutant IWQ IC50 NaV1.4
[11] = target: T1, human NaV1.7; test: IonWorks Quattro (IWQ) electrophysiology, human NaV1.7; format: cell-based; settings: read-out: Glu mutant IWQ IC50 NaV1.7

T2 sequence (P35499 whole entry): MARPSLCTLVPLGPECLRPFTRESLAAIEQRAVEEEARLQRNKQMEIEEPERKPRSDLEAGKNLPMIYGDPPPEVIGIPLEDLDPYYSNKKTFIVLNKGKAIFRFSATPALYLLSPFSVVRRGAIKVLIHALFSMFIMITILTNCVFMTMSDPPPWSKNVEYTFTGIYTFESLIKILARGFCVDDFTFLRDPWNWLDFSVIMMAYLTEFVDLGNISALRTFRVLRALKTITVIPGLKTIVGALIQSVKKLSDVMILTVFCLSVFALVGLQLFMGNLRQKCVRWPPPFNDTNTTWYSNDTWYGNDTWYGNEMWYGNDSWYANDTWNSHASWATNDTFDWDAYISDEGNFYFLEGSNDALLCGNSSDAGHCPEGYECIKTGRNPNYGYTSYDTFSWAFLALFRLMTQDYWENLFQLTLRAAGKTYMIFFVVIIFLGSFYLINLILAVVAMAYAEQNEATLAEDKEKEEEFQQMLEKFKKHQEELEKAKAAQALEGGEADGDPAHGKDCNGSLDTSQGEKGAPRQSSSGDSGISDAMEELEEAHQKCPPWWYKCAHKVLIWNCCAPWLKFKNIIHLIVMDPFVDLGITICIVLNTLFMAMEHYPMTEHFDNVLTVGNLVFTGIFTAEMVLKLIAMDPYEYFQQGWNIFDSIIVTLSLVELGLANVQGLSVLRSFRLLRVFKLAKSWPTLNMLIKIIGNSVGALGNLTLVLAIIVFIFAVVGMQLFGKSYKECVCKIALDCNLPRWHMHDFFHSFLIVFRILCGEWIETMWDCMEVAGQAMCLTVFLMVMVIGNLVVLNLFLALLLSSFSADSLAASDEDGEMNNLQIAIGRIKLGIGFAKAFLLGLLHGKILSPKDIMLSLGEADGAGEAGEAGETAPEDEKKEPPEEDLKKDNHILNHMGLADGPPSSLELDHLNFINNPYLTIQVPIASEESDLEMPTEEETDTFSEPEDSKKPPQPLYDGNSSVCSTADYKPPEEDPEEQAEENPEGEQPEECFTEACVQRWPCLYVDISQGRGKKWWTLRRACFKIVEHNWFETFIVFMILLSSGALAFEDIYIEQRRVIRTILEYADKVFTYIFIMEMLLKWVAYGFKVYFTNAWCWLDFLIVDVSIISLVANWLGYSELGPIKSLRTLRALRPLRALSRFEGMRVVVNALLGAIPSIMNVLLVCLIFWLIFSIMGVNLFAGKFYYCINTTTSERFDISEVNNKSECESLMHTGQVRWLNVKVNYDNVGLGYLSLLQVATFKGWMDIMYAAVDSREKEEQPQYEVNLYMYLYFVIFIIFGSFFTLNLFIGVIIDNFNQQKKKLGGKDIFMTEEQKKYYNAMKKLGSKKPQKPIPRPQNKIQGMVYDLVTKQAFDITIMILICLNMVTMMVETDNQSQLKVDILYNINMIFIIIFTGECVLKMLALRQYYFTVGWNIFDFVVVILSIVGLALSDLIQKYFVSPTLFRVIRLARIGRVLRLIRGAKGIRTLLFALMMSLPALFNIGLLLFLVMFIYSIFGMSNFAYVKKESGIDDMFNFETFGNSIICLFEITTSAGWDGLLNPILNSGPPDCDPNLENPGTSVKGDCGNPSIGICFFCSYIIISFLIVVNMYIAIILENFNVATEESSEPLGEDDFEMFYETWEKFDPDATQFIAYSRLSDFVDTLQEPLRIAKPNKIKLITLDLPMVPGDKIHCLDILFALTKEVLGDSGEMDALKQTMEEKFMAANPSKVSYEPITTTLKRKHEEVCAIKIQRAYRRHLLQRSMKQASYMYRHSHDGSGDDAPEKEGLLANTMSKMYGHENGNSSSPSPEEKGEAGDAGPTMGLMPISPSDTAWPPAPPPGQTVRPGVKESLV
T3 sequence (Q14524 whole entry): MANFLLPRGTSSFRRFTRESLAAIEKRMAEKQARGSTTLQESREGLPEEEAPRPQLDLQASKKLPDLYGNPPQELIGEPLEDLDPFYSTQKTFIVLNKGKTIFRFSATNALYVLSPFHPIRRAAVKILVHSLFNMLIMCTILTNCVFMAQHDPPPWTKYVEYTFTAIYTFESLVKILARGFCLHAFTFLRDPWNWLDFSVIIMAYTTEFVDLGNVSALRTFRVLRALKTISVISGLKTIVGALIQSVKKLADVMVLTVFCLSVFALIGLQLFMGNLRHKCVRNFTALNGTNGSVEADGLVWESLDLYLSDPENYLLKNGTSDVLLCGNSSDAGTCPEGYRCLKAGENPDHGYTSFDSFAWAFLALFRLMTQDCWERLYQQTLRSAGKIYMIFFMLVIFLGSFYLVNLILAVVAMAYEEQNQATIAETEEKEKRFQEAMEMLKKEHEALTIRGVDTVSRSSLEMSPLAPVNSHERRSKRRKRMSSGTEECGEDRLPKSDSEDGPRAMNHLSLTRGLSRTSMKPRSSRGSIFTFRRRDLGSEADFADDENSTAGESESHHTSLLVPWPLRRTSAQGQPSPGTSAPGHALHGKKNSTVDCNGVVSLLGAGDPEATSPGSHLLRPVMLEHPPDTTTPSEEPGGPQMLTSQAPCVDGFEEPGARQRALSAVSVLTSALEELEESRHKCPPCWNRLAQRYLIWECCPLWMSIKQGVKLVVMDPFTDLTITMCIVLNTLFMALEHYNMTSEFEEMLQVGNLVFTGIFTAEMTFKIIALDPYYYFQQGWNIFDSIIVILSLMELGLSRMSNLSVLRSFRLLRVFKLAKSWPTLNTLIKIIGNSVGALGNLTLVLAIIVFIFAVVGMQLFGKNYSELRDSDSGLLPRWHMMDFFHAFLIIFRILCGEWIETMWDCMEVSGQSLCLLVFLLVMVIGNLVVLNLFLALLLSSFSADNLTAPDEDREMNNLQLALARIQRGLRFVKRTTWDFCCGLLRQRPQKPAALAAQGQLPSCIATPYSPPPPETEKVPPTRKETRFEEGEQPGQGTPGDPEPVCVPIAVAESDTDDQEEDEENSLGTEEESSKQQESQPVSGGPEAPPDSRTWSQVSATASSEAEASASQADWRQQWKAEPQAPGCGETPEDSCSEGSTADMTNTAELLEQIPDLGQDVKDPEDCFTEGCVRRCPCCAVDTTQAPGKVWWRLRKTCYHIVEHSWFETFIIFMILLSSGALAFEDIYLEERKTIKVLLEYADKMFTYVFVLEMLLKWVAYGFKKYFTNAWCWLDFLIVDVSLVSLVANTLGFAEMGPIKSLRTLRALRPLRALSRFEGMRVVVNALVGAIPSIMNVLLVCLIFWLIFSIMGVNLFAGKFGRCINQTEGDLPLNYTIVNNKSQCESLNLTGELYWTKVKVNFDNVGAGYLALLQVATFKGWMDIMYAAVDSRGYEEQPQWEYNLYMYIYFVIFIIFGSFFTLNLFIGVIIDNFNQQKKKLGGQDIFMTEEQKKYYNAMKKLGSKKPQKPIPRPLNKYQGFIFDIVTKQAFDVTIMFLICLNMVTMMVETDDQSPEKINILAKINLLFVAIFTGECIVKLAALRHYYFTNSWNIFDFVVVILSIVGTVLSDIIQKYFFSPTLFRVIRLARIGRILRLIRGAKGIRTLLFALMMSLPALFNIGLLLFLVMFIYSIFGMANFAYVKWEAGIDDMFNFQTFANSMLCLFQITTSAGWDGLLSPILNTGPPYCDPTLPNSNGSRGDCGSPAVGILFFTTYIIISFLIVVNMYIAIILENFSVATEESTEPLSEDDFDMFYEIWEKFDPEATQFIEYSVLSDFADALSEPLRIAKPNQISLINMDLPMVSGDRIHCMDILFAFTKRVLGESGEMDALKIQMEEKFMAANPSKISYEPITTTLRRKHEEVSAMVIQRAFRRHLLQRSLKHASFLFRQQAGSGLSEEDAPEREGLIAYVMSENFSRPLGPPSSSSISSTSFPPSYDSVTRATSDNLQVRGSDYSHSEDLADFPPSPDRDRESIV
Sequence of JzTx-V(1–29) (Q2PAY4 54-83): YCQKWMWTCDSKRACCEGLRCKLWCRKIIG

Molecule: CyA-[Nle6;Pra17;Glu28]JzTx-V(1–29) (peptide)
- NaV1.7 IC50 (nM), block of human NaV1.7 current, PatchXpress (PX) platform [1]: 0.8 nM

Molecule: [Nle6;Pra11;Glu28]JzTx-V(1–29) (peptide)
- NaV1.7 IC50 (nM), block of human NaV1.7 current, PatchXpress (PX) platform [1]: 0.5 nM

Molecule: [Pra1;Nle6;Glu28]JzTx-V(1–29) (peptide)
- NaV1.7 IC50 (nM), block of human NaV1.7 current, PatchXpress (PX) platform [1]: 0.3 nM

Molecule: C#CC[C@@H]1NC(=O)[C@H](CCCNC(=N)N)NC(=O)[C@H](CCCCN)NC(=O)[C@H](CO)NC(=O)[C@H](CC(=O)O)NC(=O)[C@@H]2CSSC[C@@H]3NC(=O)[C@H](CCCNC(=N)N)NC(=O)[C@H](CC(C)C)NC(=O)CNC(=O)[C@H](CCC(=O)O)NC(=O)[C@H](CSSC[C@H](NC(=O)[C@@H](N)Cc4ccc(O)cc4)C(=O)N[C@@H](CCC(N)=O)C(=O)N[C@@H](CCCCN)C(=O)N[C@@H](Cc4c[nH]c5ccccc45)C(=O)N[C@@H](CCCC)C(=O)N[C@@H](Cc4c[nH]c5ccccc45)C(=O)N[C@@H]([C@@H](C)O)C(=O)N2)NC(=O)[C@H](CSSC[C@@H](C(=O)N[C@@H](CCCNC(=N)N)C(=O)N[C@@H](CCCCN)C(=O)N[C@@H](CCC(=O)O)C(=O)N[C@H](C(N)=O)[C@@H](C)CC)NC(=O)[C@H](Cc2c[nH]c4ccccc24)NC(=O)[C@H](CC(C)C)NC(=O)[C@H](CCCCN)NC3=O)NC1=O [Peptide 6, [Nle6;Pra14;Glu28]JzTx-V(1–29)]
- IC50 [2]: 110 nM
- IC50 [3]: 3.5 µM

Molecule: [Nle6;Pra17;Glu28]JzTx-V(1–29) (peptide)
- NaV1.7 IC50 (nM), block of human NaV1.7 current, PatchXpress (PX) platform [1]: 3.6 nM

Molecule: CC[C@H](C)[C@H](NC(=O)[C@H](CCC(=O)O)NC(=O)[C@H](CCCCN)NC(=O)[C@H](CCCNC(=N)N)NC(=O)[C@@H]1CSSC[C@@H]2NC(=O)[C@H](C)NC(=O)[C@H](CCCNC(=N)N)NC(=O)[C@H](CCCCN)NC(=O)[C@H](CO)NC(=O)[C@H](CC(=O)O)NC(=O)[C@@H]3CSSC[C@H](NC(=O)[C@H](CCCNC(=N)N)NC(=O)[C@H](CC(C)C)NC(=O)CNC(=O)[C@H](CCC(=O)O)NC(=O)[C@H](CSSC[C@H](NC(=O)[C@@H](N)Cc4ccc(O)cc4)C(=O)N[C@@H](CCC(N)=O)C(=O)N[C@@H](CCCCN)C(=O)N[C@@H](Cc4c[nH]c5ccccc45)C(=O)N[C@@H](CCSC)C(=O)N[C@@H](Cc4c[nH]c5ccccc45)C(=O)N[C@@H]([C@@H](C)O)C(=O)N3)NC2=O)C(=O)N[C@@H](CCCCN)C(=O)N[C@@H](CC(C)C)C(=O)N[C@@H](Cc2c[nH]c3ccccc23)C(=O)N1)C(N)=O [Peptide 1, [Glu28]JzTx-V(1–29)]
- selectivity for NaV1.7 over NaV1.4 ([2]; PX platform IC50 ratio): 500 fold
- IC50 ([4]; human): > 5 µM

Molecule: Pra-[Nle6;Glu28]JzTx-V(1–29) (peptide)
- IC50 of block of wild-type NaV1.5, IWQ platform (chimera panel) [5]: > 3 µM
- IC50 of block of wild-type NaV1.7, IWQ platform (chimera panel) [6]: 0.05 µM
- IC50 of block of human NaV1.7, manual patch clamp, voltage protocol with 20% of NaV channels inactivated [7]: 0.58 nM
- NaV1.7 IC50 (nM), block of human NaV1.7 current, PatchXpress (PX) platform [1]: 0.5 nM

Molecule: C#CC[C@H](N)C(=O)N[C@H]1CSSC[C@@H]2NC(=O)[C@@H]3CSSC[C@@H](C(=O)N[C@@H](CCCNC(=N)N)C(=O)N[C@@H](CCCCN)C(=O)N[C@@H](CCC(=O)O)C(=O)N[C@H](C(N)=O)[C@@H](C)CC)NC(=O)[C@H](Cc4c[nH]c5ccccc45)NC(=O)[C@H](CC(C)C)NC(=O)[C@H](CCCCN)NC(=O)[C@H](CSSC[C@H](NC(=O)[C@H]([C@@H](C)O)NC(=O)[C@H](Cc4c[nH]c5ccccc45)NC(=O)[C@H](CCCC)NC(=O)[C@H](Cc4c[nH]c5ccccc45)NC(=O)[C@H](CCCCN)NC(=O)[C@H](CCC(N)=O)NC1=O)C(=O)N[C@@H](CC(=O)O)C(=O)N[C@@H](CO)C(=O)N[C@@H](CCCCN)C(=O)N[C@@H](CCCNC(=N)N)C(=O)N[C@@H](C)C(=O)N3)NC(=O)[C@H](CCCNC(=N)N)NC(=O)[C@H](CC(C)C)NC(=O)CNC(=O)[C@H](CCC(=O)O)NC2=O [Peptide 4, [Pra1;Nle6;Glu28]JzTx-V(1–29)]
- IC50 [2]: 89 nM
- IC50 [3]: 4.6 µM

Molecule: C#CC[C@@H]1NC(=O)[C@H](CC(=O)O)NC(=O)[C@@H]2CSSC[C@@H]3NC(=O)[C@H](CCCNC(=N)N)NC(=O)[C@H](CC(C)C)NC(=O)CNC(=O)[C@H](CCC(=O)O)NC(=O)[C@H](CSSC[C@H](NC(=O)[C@@H](N)Cc4ccc(O)cc4)C(=O)N[C@@H](CCC(N)=O)C(=O)N[C@@H](CCCCN)C(=O)N[C@@H](Cc4c[nH]c5ccccc45)C(=O)N[C@@H](CCCC)C(=O)N[C@@H](Cc4c[nH]c5ccccc45)C(=O)N[C@@H]([C@@H](C)O)C(=O)N2)NC(=O)[C@H](CSSC[C@@H](C(=O)N[C@@H](CCCNC(=N)N)C(=O)N[C@@H](CCCCN)C(=O)N[C@@H](CCC(=O)O)C(=O)N[C@H](C(N)=O)[C@@H](C)CC)NC(=O)[C@H](Cc2c[nH]c4ccccc24)NC(=O)[C@H](CC(C)C)NC(=O)[C@H](CCCCN)NC3=O)NC(=O)[C@H](C)NC(=O)[C@H](CCCNC(=N)N)NC(=O)[C@H](CCCCN)NC1=O [Peptide 5, [Nle6;Pra11;Glu28]JzTx-V(1–29)]
- IC50 [2]: 194 nM
- IC50 [3]: 6 µM

Molecule: [Glu28]JzTx-V(1–29) (peptide)
- NaV1.7 IC50 (nM), block of human NaV1.7 current, PatchXpress (PX) platform [1]: 0.6 nM

Molecule: JzTx-V(1–29) (from UniProt Q2PAY4 54-83) (peptide)
- potency (IC50) of inhibition of NaV1.7 by manual patch clamp, voltage protocol with 20% of channels inactivated [8]: 0.15 nM
- NaV1.7 IC50 (nM), block of human NaV1.7 current in HEK293 cells, PatchXpress (PX) platform [1]: 0.6 nM

Molecule: [Nle6;Pra14;Glu28]JzTx-V(1–29) (peptide)
- NaV1.7 IC50 (nM), block of human NaV1.7 current, PatchXpress (PX) platform [1]: 0.5 nM

Molecule: C#CC[C@@H]1NC(=O)[C@@H]2CSSC[C@H](NC(=O)[C@@H](N)Cc3ccc(O)cc3)C(=O)N[C@@H](CCC(N)=O)C(=O)N[C@@H](CCCCN)C(=O)N[C@@H](Cc3c[nH]c4ccccc34)C(=O)N[C@@H](CCCC)C(=O)N[C@@H](Cc3c[nH]c4ccccc34)C(=O)N[C@@H]([C@@H](C)O)C(=O)N[C@H]3CSSC[C@H](NC(=O)[C@H](CCCNC(=N)N)NC(=O)[C@H](CC(C)C)NC(=O)CNC1=O)C(=O)N[C@@H](CCCCN)C(=O)N[C@@H](CC(C)C)C(=O)N[C@@H](Cc1c[nH]c4ccccc14)C(=O)N[C@H](C(=O)N[C@@H](CCCNC(=N)N)C(=O)N[C@@H](CCCCN)C(=O)N[C@@H](CCC(=O)O)C(=O)N[C@H](C(N)=O)[C@@H](C)CC)CSSC[C@H](NC(=O)[C@H](C)NC(=O)[C@H](CCCNC(=N)N)NC(=O)[C@H](CCCCN)NC(=O)[C@H](CO)NC(=O)[C@H](CC(=O)O)NC3=O)C(=O)N2 [Peptide 7, [Nle6;Pra17;Glu28]JzTx-V(1–29)]
- IC50 [2]: 130 nM
- IC50 [3]: 3.1 µM

Molecule: HwTx-IV (ECLEIFKACNPSNDQCCKSSKLVCSRKTRWCKYQIGK)
- competition for 125I-ProTx-II binding [9]: competed

Molecule: Pra-[Nle6]JzTx-V(1–29) (peptide)
- NaV1.7 IC50 (nM), block of human NaV1.7 current, PatchXpress (PX) platform [1]: 1.2 nM

Molecule: CC[C@H](C)[C@H](NC(=O)[C@@H](NC(=O)[C@H](CCCCN)NC(=O)[C@H](CCCNC(=N)N)NC(=O)[C@@H]1CSSC[C@@H]2NC(=O)[C@H](C)NC(=O)[C@H](CCCNC(=N)N)NC(=O)[C@H](CCCCN)NC(=O)[C@H](CO)NC(=O)[C@H](CCC(=O)O)NC(=O)[C@@H]3CSSC[C@H](NC(=O)[C@H](CCCNC(=N)N)NC(=O)[C@H](CC(C)C)NC(=O)CNC(=O)[C@H](CCC(=O)O)NC(=O)[C@H](CSSC[C@H](NC(=O)[C@@H](N)Cc4ccc(O)cc4)C(=O)N[C@@H](CCC(N)=O)C(=O)N[C@@H](CCCCN)C(=O)N[C@@H](Cc4c[nH]c5ccccc45)C(=O)N[C@@H](CCSC)C(=O)N[C@@H](Cc4c[nH]c5ccccc45)C(=O)N[C@@H]([C@@H](C)O)C(=O)N3)NC2=O)C(=O)N[C@@H](CCCCN)C(=O)N[C@@H](CC(C)C)C(=O)N[C@@H](Cc2c[nH]c3ccccc23)C(=O)N1)[C@@H](C)CC)C(N)=O [D10 Glu mutant]
- IC50 [10]: 8.8 µM
- IC50 [11]: 1300 nM
- IC50 [4]: > 10 µM
